According to paper PMC8554075 (Immunity, 2021):
Residue numbers refer to the chain shown, from its start.

B1: AB-3545 (antibody, V domains shown)
VH: QVQLQESGPGLVKPSETLSLTCAVSGGSISNYHWNWIRQPPGKGLEWIGYIYYSGRTNYNPTLKSRVNISVDTSKNQFSLKLSSVTAADTAVYYCAREMRRGYSGYDDWDLYAFDIWGQGTMVTVSS
VL: DIQLTQSPSFLSTYVGDRVTITCRASQGISTYLAWYQQKPGKAPKLLIYAAFTLQSGVPSRFSGSGSGTEFTLTISSLQPEDFATYYCQQLNSYPHTFGQGTKLEIK
B2: AB-3492 (antibody, V domains shown)
VH: B1 VH with N31S, H33Y, T62S, N68T
VL: B1 VL with Y14S, T31S, F52S
B3: AB-3571 (antibody, V domains shown)
VH: B1 VH with N31S, D108Y
VL: B1 VL with Y14S, G28D, F52S, A84V
B4: 3645 (antibody, V domains shown)
VH: B1 VH with N31S, H33Y, N35S, T57I, T62S, N68T
VL: B1 VL with Y14S, T31S, F52S
B5: 3490 (antibody, V domains shown)
VH: B1 VH with N31S, H33Y, N35S, T62S, N68T
VL: DIQLTQSPSFLSTSVGDRVTITCRASQGISSYLAWYQQKPGKAPKLLIYAASTLQSGVPSRFSGSGSGTEFTLTISSLQPEDFATYYCQQFNSYPHTFGQGTKLEI
B6: 3573 (antibody, V domains shown)
VH: B1 VH with Q3L, N31S, H33Y, N35S, P61S, T62S, N68T
VL: B1 VL with Y14S, T31S, F52S, E70D
B7: 3513 (antibody, V domains shown)
VH: QVQLQESGPGLVKPSETLSLTCTVTGGSINNYFWSWIRQPPGKGLEWIGNIYYSGNTIYNPSLKSRVTLSIDTSKNQFSLRLTSVTAADTAVYYCAREMRRGYSGYDYWDLYAFDVWGQGTMVTVSS
VL: B1 VL with T13A, Y14S, G16Q, G28D, T31S, F52S
B8: 3476 (antibody, V domains shown)
VH: B1 VH with N31S, H33Y, N35S, T62S, N68T
VL: B1 VL with Y14S, V15I, T31S, K45N, F52S
B9: 3606 (antibody, V domains shown)
VH: B1 VH with N31S, H33Y, N35S, P61S, T62S, N68T
VL: B1 VL with Y14S, T31S, F52S, E70D
B10: 3517 (antibody, V domains shown)
VH: B1 VH with A23T, N31S, R56S, T62S, N68S, D108Y
VL: B1 VL with T13A, Y14S, G16R, G28D, T31S, F52S, S93N
B11: 3636 (antibody, V domains shown)
VH: B1 VH with A23T, N31S, R56S, T62S, N68S, D108Y
VL: B1 VL with T13A, Y14S, G16R, T31S, F52S, S93N
B12: 3521 (antibody, V domains shown)
VH: B1 VH with A23T, N31S, N35S, R56S, N58I, T62S, N68S, K75Q, R100P, D108Y
VL: B1 VL with T13A, Y14S, G16R, T31S, F52S, S93N
B13: 3577 (antibody, V domains shown)
VH: B1 VH with A23T, N31S, R56N, T62S, N68S, V71A, D108Y
VL: B1 VL with T13A, Y14S, T31S, A50T, F52S
B14: 3581 (antibody, V domains shown)
VH: B7 VH with T25S, N30S, N31T, F33Y, I37T, N56S, L69I, I71V, R81K, V116I
VL: B1 VL with Q6P, T13A, Y14S, T31S, K39T, F52S
B15: 3475 (antibody, V domains shown)
VH: B1 VH with A23T, G27D, N31S, R56S, T62S, N68T, D72H, K81R, R97K, D108Y
VL: B1 VL with T13A, Y14S, I21V, T31S, F52S
B16: 3881 (antibody, V domains shown)
VH: QVQLQGSGPGLVKPSETLSLTCTVSGGSISSYYWTWIRQPPGKGLEWIGYIYYSGITTYNPSLKSRITISVDTSKNQFSLKLRSVTAADTAVYYCAREMRRGYSGYDYWDLYPFDIWGQGTMVTVSS
VL: B1 VL with T13A, Y14S, T31S, A50S, F52S, R61K
B17: AB-1987, expressed as human IgG1 (antibody, V domains shown)
VH: QVQLVESGGGVVQPGRSLRLSCAASGFTFSSYGMHWVRQAPGKGLEWAAVIWYDGSNKYYADSVKGRFTISRDNSKNTLYLQMNSLRAEDTAVYYCARESSGGFDYWGQGTLVTVSS
VL: NIQMTQSPSAMSASVGDRVTITCRARQGISNFLAWFQQKPGKVPKHLVYAASSLRSGVPSRFSGSGSGTEFTLTISSLQPEDFATYYCLQHNNYPYTFGQGTKLEIK
B18: AB-2126, expressed as human IgG1 (antibody, V domains shown)
VH: B17 VH with M34I, A48V, S100T, S101L, G102D, F104M, Y106V, L112T
VL: B17 VL with F32Y, V48I, R55L, S76R, N93S
B19: AB-3467, expressed as human IgG1 (antibody, V domains shown)
VH: B1 VH with A23T, N31S, R56N, T62S, N68S, V71T, A96V, D108Y
VL: B1 VL with T13A, Y14S, T31S, K45N, F52S
B20: AB-2445, expressed as human IgG1 (antibody, V domains shown)
VH: QVQLVESGGGVVQPGRSLRLSCAASGFTFSSYGMHWVRQAPGKGLEWVAVIWYDGSNKYYADSVKGRFTISRDNSKNTLYLQMNSLRAEDTAVYYCARDDYYGSGSYDYYGMDVWGQGTTVTVSS
VL: DIQMTQSPSSLSASVGDRITITCRASQGIRNDLDWYQQKPGKAPKRLIYAASSLQSGVPSRFSGSGSGTEFTLTISSLQPEDFATYYCLQHNSYPPYTFGQGTKLEIK
B21: AB-3623, expressed as human IgG1 (antibody, V domains shown)
VH: B1 VH with N31S, H33Y, K43T, T62S, N68T
VL: B1 VL with Y14S, V15I, T31S, K45N, F52S
B22: AB-4873, expressed as human IgG1 (antibody, V domains shown)
VH: QVQLVQSGAEVKKPGASVKVSCKASGYTFTSYYMHWVRQAPGQGLEWMGIINPSAGTTNYAQKFQGRVTMTRDTSTSTVYMELSSLRPEDTAVYYCARENYYGWGSYPFDYWGQGTLVTVSS
VL: B1 VL with I2V, T13A, Y14S, T31S, F52S, S65T, H96Y
B23: AB-4689, expressed as human IgG1 (antibody, V domains shown)
VH: QVQLVQSGAEVKKPGASVKVSCKASGYTFSSYGISWVRQAPGQGLEWMGWISAYNGNTYYAQKLQGRVTMTTDTSTSTAYMELRSLRSDDTAVYYCAREFGRLIVHFDYWGQGTLVTVSS
VL: EIVLTQSPDFQSVTPKEKVTITCRASQSIGSSLSWYQQKPDQSPKLLIKCASQSISGVPSRFSGSGSGTDFTLTINSLEAEDAAAYYCHQSSSLPYTFGQGTKLEIK

Columns and labels:
[1] = target: RaTG13 receptor-binding domain (Bat coronavirus RaTG13, UniProt A0ABF7PLN6)
[2] = target: T1, SARS-CoV-2 receptor-binding domain (SARS-CoV-2, UniProt P0DTC2)
[3] = target: SARS-CoV-1 receptor-binding domain (SARS-CoV (SARS-CoV-1), isolate not …, UniProt P59594)
[4] = target: T1, SARS-CoV-2 receptor-binding domain; test: cell-based or functional assay
[5] = target: T1, SARS-CoV-2 receptor-binding domain; test: BLI

| Binder | binding result [1] | binding result [2] | binding result [3] | neutralization of live CoV2 virus, Vero E6 cells (blocks RBD-ACE2) [4] [µg/mL] | Kd [5] [nM] |
| --- | --- | --- | --- | --- | --- |
| B1 | binds | binds | binds |  |  |
| B2 | binds | binds | binds |  |  |
| B3 | binds | binds | binds |  |  |
| B4 | binds | binds | binds |  |  |
| B5 | binds | binds | binds |  |  |
| B6 | binds | binds | binds |  |  |
| B7 | binds | binds | binds |  |  |
| B8 | binds | binds | binds |  |  |
| B9 | binds | binds | binds |  |  |
| B10 | binds | binds | binds |  |  |
| B11 | binds | binds | binds |  |  |
| B12 | binds | binds | binds |  |  |
| B13 | binds | binds | binds |  |  |
| B14 | binds | binds | binds |  |  |
| B15 | binds | binds | binds |  |  |
| B16 | binds | binds | binds |  |  |
| B17 |  |  |  | 0.054 |  |
| B18 |  |  |  | 0.106 |  |
| B19 |  |  |  | 0.179 | 4.1 |
| B20 |  |  |  | 0.37 |  |
| B21 |  |  |  |  | 2.3 |
| B22 |  |  |  |  | 4.1 |
| B23 |  |  |  |  | 0.24 |
